Values quoted from earlier work, collected in paper PMC8671138.

Molecular target: CD47 (Homo sapiens) (UniProt Q08722)
Sequence of UniProt Q08722 (Q08722 19-323): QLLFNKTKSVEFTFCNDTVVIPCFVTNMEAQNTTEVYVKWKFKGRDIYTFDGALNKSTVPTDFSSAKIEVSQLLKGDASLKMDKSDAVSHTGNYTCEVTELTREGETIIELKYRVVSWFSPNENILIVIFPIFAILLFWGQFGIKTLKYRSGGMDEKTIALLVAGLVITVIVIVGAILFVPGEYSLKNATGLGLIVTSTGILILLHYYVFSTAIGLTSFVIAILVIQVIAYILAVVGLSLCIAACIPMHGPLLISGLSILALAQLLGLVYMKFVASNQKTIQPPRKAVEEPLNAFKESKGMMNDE

Substance: SIRPα (from UniProt P78324)
- Kd: 2000 nM
